Experiments:
TGF-β1蛋白 [1] = molecular target: T1, TGF-β1蛋白 (UniProt P01137 279-390); assay: cell-based or functional assay
VEGF-A165 = molecular target: T2, VEGF-A165 (UniProt P15692-4 27-191); assay: ELISA, VEGF coated at 100 ng/well, HRP goat anti-human Fab detection
T2 construct: Isoform VEGF-A165; also called VEGF蛋白

TGF-β1蛋白 [2] = molecular target: T1, TGF-β1蛋白; assay: ELISA, TGF-β1 coated at 100 ng/well, HRP goat anti-human Fab detection

T1 sequence (P01137 279-390 limits assumed): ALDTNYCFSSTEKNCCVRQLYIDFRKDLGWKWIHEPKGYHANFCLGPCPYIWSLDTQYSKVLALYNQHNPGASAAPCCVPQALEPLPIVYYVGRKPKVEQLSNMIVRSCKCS
T2 sequence (P15692 other isoform, or with tags, fused parts or gaps limits assumed): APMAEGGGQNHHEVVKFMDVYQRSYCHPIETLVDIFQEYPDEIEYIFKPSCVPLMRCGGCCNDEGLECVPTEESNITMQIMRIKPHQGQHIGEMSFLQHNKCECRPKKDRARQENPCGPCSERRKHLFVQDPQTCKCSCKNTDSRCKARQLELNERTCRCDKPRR

SMAD3报告基因抑制实验 IC50 (TGF-β1蛋白 [1]): 0.337 nM | binding result (VEGF-A165): no binding (tested: 200nM) | EC50 (TGF-β1蛋白 [2]): 0.202 nM
B1: 抗TGF-β单抗12.7 (antibody, human IgG4 S228P, kappa, V domains shown)
VH: QVQLVQSGAEVKKPGASVKVSCKASGYTFTSEWMNWVRQAPGQGLEWMGQIFPALGSTNYNEMYEGRVTMTTDTSTSTAYMELRSLRSDDTAVYYCARGIGNYALDAMDYWGQGTLVTVSS
VL: DIQMTQSPSSLSASVGDRVTITCRASESVDFYGNSFMHWYQQKPGKAPKLLIYLASNLESGVPSRFSGSGSGTDFTLTISSLQPEDFATYYCQQNIEDPLTFGGGTKVEIKR
notes: also called mAb127
